Publication PMC10397247

What was measured:
4H346-bH = biological target: T1, 4H346-bH; assay: two-hybrid library CCNG1;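 further: natural log of median RNA to DNA barcode read ratio; higher means stronger binding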
T1 chain: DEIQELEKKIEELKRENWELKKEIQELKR

4H918-bH = biological target: T2, 4H918-bH; assay: two-hybrid library CCNG1;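 further: natural log of median RNA to DNA barcode read ratio; higher means stronger binding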
T2 chain: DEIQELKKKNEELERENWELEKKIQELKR

4H797-bH = biological target: T3, 4H797-bH; assay: two-hybrid library CCNG1;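 further: natural log of median RNA to DNA barcode read ratio; higher means stronger binding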
T3 chain: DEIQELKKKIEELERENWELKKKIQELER

4H953-bH = biological target: T4, 4H953-bH; assay: two-hybrid library CCNG1;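 further: natural log of median RNA to DNA barcode read ratio; higher means stronger binding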
T4 chain: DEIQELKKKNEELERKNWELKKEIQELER

4H4073-bH = biological target: T5, 4H4073-bH; assay: two-hybrid library CCNG1
T5 chain: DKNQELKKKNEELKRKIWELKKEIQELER

4H575-bH = biological target: T6, 4H575-bH; assay: two-hybrid library CCNG1
T6 chain: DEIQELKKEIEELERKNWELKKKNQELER

4H855-bH = biological target: T7, 4H855-bH; assay: two-hybrid library CCNG1
T7 chain: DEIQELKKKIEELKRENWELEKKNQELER

4H3926-bH = biological target: T8, 4H3926-bH; assay: two-hybrid library CCNG1
T8 chain: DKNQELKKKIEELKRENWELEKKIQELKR

4H754-bH = biological target: T9, 4H754-bH; assay: two-hybrid library CCNG1
T9 chain: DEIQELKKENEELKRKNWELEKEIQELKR

4H968-bH = biological target: T10, 4H968-bH; assay: two-hybrid library CCNG1
T10 chain: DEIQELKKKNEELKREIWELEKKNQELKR

4H780-bH = biological target: T11, 4H780-bH; assay: two-hybrid library CCNG1
T11 chain: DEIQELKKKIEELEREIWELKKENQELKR

4H683-bH = biological target: T12, 4H683-bH; assay: two-hybrid library CCNG1
T12 chain: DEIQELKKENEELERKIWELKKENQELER

4H953-bA = biological target: T13, 4H953-bA; assay: two-hybrid library CCNG1
T13 chain: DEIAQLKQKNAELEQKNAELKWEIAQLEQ

4H3427-bH = biological target: T14, 4H3427-bH; assay: two-hybrid library CCNG1
T14 chain: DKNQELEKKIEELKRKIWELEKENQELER

4H457-bH = biological target: T15, 4H457-bH; assay: two-hybrid library CCNG1
T15 chain: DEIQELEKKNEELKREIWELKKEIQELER

4H3112-bH = biological target: T16, 4H3112-bH; assay: two-hybrid library CCNG1
T16 chain: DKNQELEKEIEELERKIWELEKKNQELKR

4H607-bH = biological target: T17, 4H607-bH; assay: two-hybrid library CCNG1
T17 chain: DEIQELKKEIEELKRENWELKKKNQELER

4H454-bH = biological target: T18, 4H454-bH; assay: two-hybrid library CCNG1
T18 chain: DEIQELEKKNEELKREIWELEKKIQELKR

4H967-bH = biological target: T19, 4H967-bH; assay: two-hybrid library CCNG1
T19 chain: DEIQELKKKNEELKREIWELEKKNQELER

4H568-bH = biological target: T20, 4H568-bH; assay: two-hybrid library CCNG1
T20 chain: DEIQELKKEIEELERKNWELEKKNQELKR

4H4001-bH = biological target: T21, 4H4001-bH; assay: two-hybrid library CCNG1
T21 chain: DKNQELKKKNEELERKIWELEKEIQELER

4H780-bN = biological target: T22, 4H780-bN; assay: two-hybrid library CCNG1
T22 chain: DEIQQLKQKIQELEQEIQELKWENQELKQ

4H687-bH = biological target: T23, 4H687-bH; assay: two-hybrid library CCNG1
T23 chain: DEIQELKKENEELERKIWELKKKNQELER

4H717-bH = biological target: T24, 4H717-bH; assay: two-hybrid library CCNG1
T24 chain: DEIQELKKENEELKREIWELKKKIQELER

4H3855-bH = biological target: T25, 4H3855-bH; assay: two-hybrid library CCNG1
T25 chain: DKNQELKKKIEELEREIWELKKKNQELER

4H883-bH = biological target: T26, 4H883-bH; assay: two-hybrid library CCNG1
T26 chain: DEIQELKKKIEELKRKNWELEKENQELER

4H908-bH = biological target: T27, 4H908-bH; assay: two-hybrid library CCNG1
T27 chain: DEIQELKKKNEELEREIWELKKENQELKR

4H3782-bH = biological target: T28, 4H3782-bH; assay: two-hybrid library CCNG1
T28 chain: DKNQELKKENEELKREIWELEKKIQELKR

4H72-bH = biological target: T29, 4H72-bH; assay: two-hybrid library CCNG1
T29 chain: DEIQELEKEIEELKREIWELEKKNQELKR

O13-AA = biological target: T30, O13-AA; assay: two-hybrid library CCmax; settings: mean of both orientations
T30 chain: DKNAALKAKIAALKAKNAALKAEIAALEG

GCN2_T = assay: two-hybrid library CCmax
4H481-AA = biological target: T31, 4H481-AA; assay: two-hybrid library CCmax; settings: mean of both orientations
T31 chain: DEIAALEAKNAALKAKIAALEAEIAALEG

4H4033-AA = biological target: T32, 4H4033-AA; assay: two-hybrid library CCmax; settings: mean of both orientations
T32 chain: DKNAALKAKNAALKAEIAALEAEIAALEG

4H775-AA = biological target: T33, 4H775-AA; assay: two-hybrid library CCmax; settings: mean of both orientations
T33 chain: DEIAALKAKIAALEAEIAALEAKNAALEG

4H451-AA = biological target: T34, 4H451-AA; assay: two-hybrid library CCmax; settings: mean of both orientations
T34 chain: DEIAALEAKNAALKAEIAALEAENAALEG

4H3625-AA = biological target: T35, 4H3625-AA; assay: two-hybrid library CCmax
T35 chain: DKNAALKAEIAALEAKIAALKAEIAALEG

4H_APH = biological target: T36, 4H_APH; assay: two-hybrid library CCmax; settings: mean of both orientations
T36 chain: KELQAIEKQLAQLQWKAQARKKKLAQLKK

4H384-AA = biological target: T37, 4H384-AA; assay: two-hybrid library CCmax; settings: mean of both orientations
T37 chain: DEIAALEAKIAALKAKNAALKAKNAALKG

4H43-AA = biological target: T38, 4H43-AA; assay: two-hybrid library CCmax; settings: mean of both orientations
T38 chain: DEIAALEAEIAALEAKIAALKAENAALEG

4H390-AA = biological target: T39, 4H390-AA; assay: two-hybrid library CCmax; settings: mean of both orientations
T39 chain: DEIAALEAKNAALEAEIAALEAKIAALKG

4H3940-AA = biological target: T40, 4H3940-AA; assay: two-hybrid library CCmax; settings: mean of both orientations
T40 chain: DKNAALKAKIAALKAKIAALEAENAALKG

4H_BCR = biological target: T41, 4H_BCR; assay: two-hybrid library CCmax; settings: mean of both orientations
T41 chain: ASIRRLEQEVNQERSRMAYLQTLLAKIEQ

4H3905-AA = biological target: T42, 4H3905-AA; assay: two-hybrid library CCmax; settings: mean of both orientations
T42 chain: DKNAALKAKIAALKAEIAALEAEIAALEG

4H87-AA = biological target: T43, 4H87-AA; assay: two-hybrid library CCmax; settings: mean of both orientations
T43 chain: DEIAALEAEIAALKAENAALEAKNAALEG

4H3664-AA = biological target: T44, 4H3664-AA; assay: two-hybrid library CCmax; settings: mean of both orientations
T44 chain: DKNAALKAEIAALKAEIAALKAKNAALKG

4H816-AA = biological target: T45, 4H816-AA; assay: two-hybrid library CCmax; settings: mean of both orientations
T45 chain: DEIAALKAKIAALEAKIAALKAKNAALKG

4H55-AA = biological target: T46, 4H55-AA; assay: two-hybrid library CCmax; settings: mean of both orientations
T46 chain: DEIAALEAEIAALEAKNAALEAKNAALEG

4H_GCN4 = assay: two-hybrid library CCmax; settings: mean of both orientations
4H662-AA = biological target: T47, 4H662-AA; assay: two-hybrid library CCmax; settings: mean of both orientations
T47 chain: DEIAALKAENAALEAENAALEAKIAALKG

4H4038-AA = biological target: T48, 4H4038-AA; assay: two-hybrid library CCmax; settings: mean of both orientations
T48 chain: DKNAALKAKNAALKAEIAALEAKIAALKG

O14-AA = biological target: T49, O14-AA; assay: two-hybrid library CCmax; settings: mean of both orientations
T49 chain: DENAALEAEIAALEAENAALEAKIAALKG

O11-AA = biological target: T50, O11-AA; assay: two-hybrid library CCmax; settings: mean of both orientations
T50 chain: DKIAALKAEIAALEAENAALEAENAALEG

4H3922-AA = biological target: T51, 4H3922-AA; assay: two-hybrid library CCmax; settings: mean of both orientations
T51 chain: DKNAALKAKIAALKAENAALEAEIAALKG

4H510-AA = biological target: T52, 4H510-AA; assay: two-hybrid library CCmax; settings: mean of both orientations
T52 chain: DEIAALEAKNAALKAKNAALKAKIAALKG

4H369-AA = biological target: T53, 4H369-AA; assay: two-hybrid library CCmax; settings: mean of both orientations
T53 chain: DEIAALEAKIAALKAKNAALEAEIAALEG

4H_GCN4, sequence (chain, as listed by the source): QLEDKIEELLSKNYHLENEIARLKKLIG

## DKIQELKKKNEELKREIWELEKEIQELKR [4H3010-bH]
4H346-bH
  interaction score: -0.345
4H918-bH
  interaction score: -2.71
4H797-bH
  interaction score: -1.11
4H953-bH
  interaction score: 0.505
4H4073-bH
  interaction score: 0.581
4H575-bH
  interaction score: -2.51
4H855-bH
  interaction score: -0.95
4H3926-bH
  interaction score: 0.68
4H754-bH
  interaction score: -1.06
4H968-bH
  interaction score: 0.0625
4H780-bH
  interaction score: -0.427
4H683-bH
  interaction score: 0.161
4H953-bA
  interaction score: -0.817
4H3427-bH
  interaction score: 0.496
4H457-bH
  interaction score: 0.658
4H3112-bH
  interaction score: -1.68

## DKNQELEKKIEELKRKIWELEKENQELER [4H3427-bH]
4H346-bH
  interaction score: -1.08
4H918-bH
  interaction score: -0.345
4H607-bH
  interaction score: -1.37
4H797-bH
  interaction score: -0.726
4H953-bH
  interaction score: -2.3
4H4073-bH
  interaction score: 0.194
4H575-bH
  interaction score: 1.53
4H855-bH
  interaction score: -0.0661
4H454-bH
  interaction score: -0.546
4H3926-bH
  interaction score: -0.169
4H967-bH
  interaction score: -1.41
4H568-bH
  interaction score: -1.66
4H754-bH
  interaction score: -0.851
4H968-bH
  interaction score: -0.828
4H780-bH
  interaction score: 0.188
4H683-bH
  interaction score: -0.937
4H4001-bH
  interaction score: 0.717
4H780-bN
  interaction score: -0.425
4H687-bH
  interaction score: -0.309
4H717-bH
  interaction score: -0.417
4H3427-bH
  interaction score: 1.13
4H457-bH
  interaction score: -0.153
4H3855-bH
  interaction score: 0.0459
4H883-bH
  interaction score: -1.42
4H908-bH
  interaction score: -0.797
4H3782-bH
  interaction score: -0.106
4H72-bH
  interaction score: -0.0186

## DKNAALKAEIAALEAKIAALKAEIAALEG [4H3625-AA]
O13-AA
  interaction score: -1.47
GCN2_T
  interaction score: -0.674
4H481-AA
  interaction score: -0.502
4H4033-AA
  interaction score: -0.401
4H775-AA
  interaction score: 0.881
4H451-AA
  interaction score: -1.64
4H3625-AA
  interaction score: 2.27
4H_APH
  interaction score: -1.59
4H384-AA
  interaction score: -1.24
4H43-AA
  interaction score: 1.85
4H390-AA
  interaction score: 1.54
4H3940-AA
  interaction score: -0.199
4H_BCR
  interaction score: -1.17
4H3905-AA
  interaction score: 2.29
4H87-AA
  interaction score: -0.904
4H3664-AA
  interaction score: -0.0768
4H816-AA
  interaction score: 1.38
4H55-AA
  interaction score: -1.29
4H_GCN4
  interaction score: -0.702
4H662-AA
  interaction score: -1.3
4H4038-AA
  interaction score: 1.61
O14-AA
  interaction score: 1.44
O11-AA
  interaction score: -1.53
4H3922-AA
  interaction score: 0.185
4H510-AA
  interaction score: -1.93
4H369-AA
  interaction score: -0.703
